Changes are numbered by the printed parent chain. Blank lines part the entries; values can stand above or below the binder they belong to.
Tests used:
[1] = target: T1, human Integrin Associated Protein (IAP) expressed on mouse leukemia cell line L1210 (human, UniProt Q08722 19-323); assay: flow cytometry, COS7 supernatant on hIAP/L1210 cells, anti-FLAG and FITC anti-mouse IgG
T1 construct: whole, on cells; also called human IAP; hIAP/L1210
Experimental: Flow cytometry was performed using the aforementioned COS7 cells culture supernatant to measure the binding to the antigen. The culture supernatant of the COS7 cells expressing the reconstructed single chain Fv of antibody MABL-2 or the culture supernatant of COS7 cells transformed with pCHO1 vector as a control was added to 2×10⁵ cells of the mouse leukemia cell line L1210 expressing human Integrin Associated Protein (IAP) or the cell line L1210 transformed with pCOS1 as a control. After incubating on ice and washing, the mouse anti-FLAG antibody (SIGMA) was added. Then the cells were incubated and washed. Then, the FITC labeled anti-mouse IgG antibody (BECTON DICKINSON) was added thereto and the cells were incubated and washed again. Subsequently, the fluorescence intensity was measured using the FACScan apparatus (BECTON DICKINSON).
Flow cytometry was performed using the culture supernatants of COS7 cells prepared in Example 6.3 (1) to measure the binding of the MABL2-scFVs and sc(Fv)₂ to human Integrin Associated Protein (IAP) antigen. The culture supernatants to be tested or a culture supernatant of COS7 cells as a control was added to 2×10⁵ cells of the mouse leukemia cell line L1210 expressing human IAP. After incubating on ice and washing, 10 μg/mL of the mouse anti-FLAG antibody (SIGMA) was added and then the cells were incubated and washed. Then, the FITC labeled anti-mouse IgG antibody (BECTON DICKINSON) was added thereto and the cells were incubated and washed again. The fluorescence intensity was measured using the FACScan apparatus (BECTON DICKINSON). […] (see FIGS. 40a and 40b).

[2] = target: T2, secretion-type human IAP antigen (human, UniProt Q08722 19-142, limits assumed); assay: competitive ELISA on captured secretion-type human IAP; competitor biotinized MABL-2
T2 construct: also called human IAP antigen (soluble, COS7 supernatant)
T2 sequence (Q08722 other isoform, or with tags, fused parts or gaps limits assumed): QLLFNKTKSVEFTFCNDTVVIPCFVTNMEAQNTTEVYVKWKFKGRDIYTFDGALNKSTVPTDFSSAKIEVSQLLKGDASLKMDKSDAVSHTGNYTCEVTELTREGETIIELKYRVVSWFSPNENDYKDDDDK
Experimental: The binding activity of the reconstructed single chain Fv of antibody MABL-2 was measured based on the inhibiting activity against the binding of mouse monoclonal antibodies to the antigen.
The anti-FLAG antibody adjusted to 1 μg/ml was added to each well on 96-well plate and incubated at 37° C. for 2 hours. After washing, blocking was performed with 1% BSA-PBS. After incubating and washing at a room temperature, the culture supernatant of COS7 cells into which the secretion-type human IAP antigen gene (SEQ ID No. 26) had been introduced was diluted with PBS into twofold volume and added to each well. After incubating and washing at a room temperature, a mixture of 50 μl of the biotinized MABL-2 antibody adjusted to 100 ng/ml and 50 μl of sequentially diluted supernatant of the COS7 cells expressing the reconstructed single chain Fv of antibody MABL-2 were added into each well. After incubating and washing at a room temperature, the alkaline phosphatase-conjugated streptoavidin (Zymed) was added into each well. After incubating and washing at a room temperature, the substrate solution (SIGMA) was added and absorbance of the reaction mixture in each well was measured at 405 nm.

[3] = target: T1, human Integrin Associated Protein (IAP) …; assay: flow cytometry, COS7 supernatant on hIAP/L1210 cells, FITC anti-human IgG
Experimental: Flow cytometry was performed using the aforementioned culture supernatant of COS7 cells to measure binding to the antigen. The culture supernatant of the COS7 cells expressing the chimera MABL-1 antibody or the COS7 cells expressing the chimera MABL-2 antibody, or human IgG antibody (SIGMA) as a control was added to 4×10⁵ cells of mouse leukemia cell line L1210 expressing human IAP and incubated on ice. After washing, the FITC-labeled anti-human IgG antibody (Cappel) was added thereto. After incubating and washing, the fluorescence intensity thereof was measured using the FACScan apparatus (BECTON DICKINSON).

[4] = target: T3, human TPO receptor (MPL) expressed on Ba/F3 cells (human, UniProt P40238 26-635); assay: cell-based or functional assay
T3 sequence (looked up): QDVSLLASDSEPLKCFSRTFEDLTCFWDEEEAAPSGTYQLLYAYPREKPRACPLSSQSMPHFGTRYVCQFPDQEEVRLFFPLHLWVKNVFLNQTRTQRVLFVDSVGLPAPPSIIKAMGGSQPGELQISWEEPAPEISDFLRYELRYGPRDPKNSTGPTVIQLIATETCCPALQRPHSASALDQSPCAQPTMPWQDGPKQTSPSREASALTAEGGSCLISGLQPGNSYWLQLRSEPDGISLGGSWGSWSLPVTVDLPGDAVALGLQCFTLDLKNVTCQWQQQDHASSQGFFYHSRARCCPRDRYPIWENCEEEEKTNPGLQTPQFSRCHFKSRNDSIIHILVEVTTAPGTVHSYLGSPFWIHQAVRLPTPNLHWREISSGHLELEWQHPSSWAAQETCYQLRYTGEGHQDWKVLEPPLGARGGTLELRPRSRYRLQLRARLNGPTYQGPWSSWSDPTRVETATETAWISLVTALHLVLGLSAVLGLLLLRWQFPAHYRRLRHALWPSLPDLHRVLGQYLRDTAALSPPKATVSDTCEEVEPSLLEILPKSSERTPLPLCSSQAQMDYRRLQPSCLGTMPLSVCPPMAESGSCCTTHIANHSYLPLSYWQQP

T1 sequence (Q08722 19-323): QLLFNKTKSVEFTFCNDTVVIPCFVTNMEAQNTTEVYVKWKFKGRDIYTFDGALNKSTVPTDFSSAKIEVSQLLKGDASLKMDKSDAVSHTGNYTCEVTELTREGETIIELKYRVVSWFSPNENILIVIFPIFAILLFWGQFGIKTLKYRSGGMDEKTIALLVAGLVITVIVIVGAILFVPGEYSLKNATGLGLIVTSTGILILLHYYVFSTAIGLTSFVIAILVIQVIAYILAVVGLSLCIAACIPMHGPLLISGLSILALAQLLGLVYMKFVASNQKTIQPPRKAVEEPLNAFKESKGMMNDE

- binding result [1]: binds
B1: MABL2-scFv <HL-0> (scFv)
scFv: QVQLQQSGPELVKPGASVKMSCKASGYTFANHVIHWVKQKPGQGLEWIGYIYPYNDGTKYNEKFKDKATLTSDKSSTTAYMDLSSLASEDSAVYYCARGGYYTYDDWGQGTTLTVSSDVVMTQSPLSLPVSLGDQASISCRSSQSLVHSNGKTYLHWYLQKPGQSPKLLIYKVSNRFSGVPDRFSGSGSVTDFTLMISRVEAEDLGVYFCSQSTHVPYTFGGGTKLEIKDYKDDDDK
notes: COS7 culture supernatant; also called CF2HL-0/pCOS1

- binding result [1]: binds
- binding result [2]: binds
B2: reconstructed single chain Fv of antibody MABL-2 (pCHOM2, COS7 culture supernatant) (scFv)
scFv: QVQLQQSGPELVKPGASVKMSCKASGYTFANHVIHWVKQKPGQGLEWIGYIYPYNDGTKYNEKFKDKATLTSDKSSTTAYMDLSSLASEDSAVYYCARGGYYTYDDWGQGTTLTVSSGGGGSGGGGSGGGGSDVVMTQSPLSLPVSLGDQASISCRSSQSLVHSNGKTYLHWYLQKPGQSPKLLIYKVSNRFSGVPDRFSGSGSVTDFTLMISRVEAEDLGVYFCSQSTHVPYTFGGGTKLEIKDYKDDDDK
notes: Unpurified COS7 supernatant; also called MABL2-scFv; MABL2-scFv/COS7

- binding result [1]: binds
B3: antibody MABL-2 sc(Fv)2 (scFv)
scFv: QVQLQQSGPELVKPGASVKMSCKASGYTFANHVIHWVKQKPGQGLEWIGYIYPYNDGTKYNEKFKDKATLTSDKSSTTAYMDLSSLASEDSAVYYCARGGYYTYDDWGQGTTLTVSSGGGGSGGGGSGGGGSDVVMTQSPLSLPVSLGDQASISCRSSQSLVHSNGKTYLHWYLQKPGQSPKLLIYKVSNRFSGVPDRFSGSGSVTDFTLMISRVEAEDLGVYFCSQSTHVPYTFGGGTKLEIKGGGGSGGGGSGGGGSVDSQVQLQQSGPELVKPGASVKMSCKASGYTFANHVIHWVKQKPGQGLEWIGYIYPYNDGTKYNEKFKDKATLTSDKSSTTAYMDLSSLASEDSAVYYCARGGYYTYDDWGQGTTLTVSSGGGGSGGGGSGGGGSDVVMTQSPLSLPVSLGDQASISCRSSQSLVHSNGKTYLHWYLQKPGQSPKLLIYKVSNRFSGVPDRFSGSGSVTDFTLMISRVEAEDLGVYFCSQSTHVPYTFGGGTKLEIKDYKDDDDK
notes: Single chain bivalent antibody; also called pCHOM2(Fv)2

- binding result [3]: binds
B4: chimera MABL-1 antibody (antibody, V domains shown)
VH: QVQLQQSGPDLVKPGASVKMSCKASGYTFVNHVMHWVKQKPGQGLEWIGYIYPYNDGTKYNEKFKGKATLTSEKSSSAAYMELSSLASEDSAVYYCARGGYYSYDDWGQGTTLTVSS
VL: DVVMTQTPLSLPVSLGDQASISCRSSQSLLHSKGNTYLQWYLQKPGQSPKLLIYKVSNRFSGVPDRFSGSGSGTDFTLKISRVEAEDLGVYFCSQSTHVPYTSGGGTKLEIK
notes: Mouse V regions cloned into HEF-gamma and HEF-kappa vectors with human C regions; COS7 culture supernatant

- binding result [3]: binds
B5: chimera MABL-2 antibody (antibody, V domains shown)
VH: B4 VH with D10E, V30A, M34I, G66D, E73D, S77T, A78T, E82D, S103T
VL: B4 VL with T7S, L30V, K33N, N35K, Q39H, G73V, K79M, S103F
notes: as for B4

- binding result [1]: binds
B6: MABL2-scFv <LH-0> (scFv)
scFv: DVVMTQSPLSLPVSLGDQASISCRSSQSLVHSNGKTYLHWYLQKPGQSPKLLIYKVSNRFSGVPDRFSGSGSVTDFTLMISRVEAEDLGVYFCSQSTHVPYTFGGGTKLEIKQVQLQQSGPELVKPGASVKMSCKASGYTFANHVIHWVKQKPGQGLEWIGYIYPYNDGTKYNEKFKDKATLTSDKSSTTAYMDLSSLASEDSAVYYCARGGYYTYDDWGQGTTLTVSSDYKDDDDK
notes: COS7 culture supernatant; also called CF2LH-0/pCOS1

- ED50, TPO-like agonist activity (proliferation of BaF/mpl cells, WST-8) [4]: 29 nM
B7: antibody 12B5 (IgG) (antibody, V domains shown)
VH: QVQLVQSGGGLVRPGGSLSLSCAVSGITLRTYGMHWVRQAPGKGLEWVAGISFDGRSEYYADSVQGRFTISRDSSKNTLYLQMNSLRAEDTAVYYCARGAHYGFDIWGQGTMVTVSS
VL: DIQMTQSPSTLSASIGDRVTITCRASEGIYHWLAWYQQKPGKAPKLLIYKASSLASGAPSRFSGSGSGTDFTLTISSLQPDDFATYYCQQYSNYPLTFGGGTKLEIK

- ED50, TPO-like agonist activity (proliferation of BaF/mpl cells, WST-8) [4]: 34700 nM
B8: 12B5Fab (Fab, V domains shown)
VH: B7 VH
VL: B7 VL

- ED50, TPO-like agonist activity (proliferation of BaF/mpl cells, WST-8) [4]: 75 nM
B9: reconstructed 12B5 single chain Fv (sc12B5), culture supernatant of COS-7 cells (scFv)
scFv: QVQLVQSGGGLVRPGGSLSLSCAVSGITLRTYGMHWVRQAPGKGLEWVAGISFDGRSEYYADSVQGRFTISRDSSKNTLYLQMNSLRAEDTAVYYCARGAHYGFDIWGQGTMVTVSSGGGGSGGGGSGGGGSDIQMTQSPSTLSASIGDRVTITCRASEGIYHWLAWYQQKPGKAPKLLIYKASSLASGAPSRFSGSGSGTDFTLTISSLQPDDFATYYCQQYSNYPLTFGGGTKLEIKDYKDDDDK

- ED50, TPO-like agonist activity (proliferation of BaF/mpl cells, WST-8) [4]: 4440 nM
B10: sc12B5 monomer (scFv)
scFv: B9 scFv

- ED50, TPO-like agonist activity (proliferation of BaF/mpl cells, WST-8) [4]: 10.1 nM
- fold agonist activity against monovalent sc12B5 [4]: ~400 fold
B11: sc12B5 dimer (scFv)
scFv: B9 scFv

— patent US20040058393A1 (published 2004)
